This is an account of results in PMC12058526.

For the experiment, the target named is human endogenous fatty acid synthase (FASN) (human) (UniProt P49327). Kind of experiment: cryo-EM structure; purified endogenous FASN at 0.5-1.0 mg/ml in TBS buffer, alone or incubated 30 min with 1 mM orlistat or 3 mM 1,3-DBP; C2 symmetry applied; condensing and modifying wings refined separately.

“human endogenous fatty acid synthase (FASN), P49327 1-2511” showed a stoichiometry N of 2.
